Assays:
APS patient plasma = test: Surface plasmon resonance (BIAcore): APS patient plasma/serum over immobilized β2GPI proteins; assay type: binding, human; design: key: Req = fitted equilibrium plateau BIAcore response
Text: (§1) Reagents. CM5 chips, NHS and EDC and HBS-EP buffer were from BIAcore. Human haptoglobin (phenotyope 1—1), a protein containing the short consensus repeat motif found in β2GPI, was immobilized in a separate flow cell on the chip and used as a negative control. Recombinant β2GPI and domain-deletion mutants of β2GPI were expressed in Tn5 cells using the baculovirus protein expression system and purified from the supernatants by nickel-chelation affinity column. Iverson et al. (1998) Proc. Natl. Acad. Sci. USA 95:15542-15546. Normal human plasma samples were purchased (George King Biomedical) or obtained in-house. Patient plasma samples from individuals diagnosed with either primary or secondary (to lupus) antiphospholipid antibody syndrome were obtained from a number of clinical sources.
(§2) The 55 controls used in this study were derived from a heterogenous sample. Thirty control samples (15 male; 15 female; mean age 34 yrs, range 19-45 yrs) purchased from George King Bio-Medical (Overland Park, Kans.), 5 local volunteers (3 male, 2 female), 2 pooled commercial sources and 18 blood bank donors of unknown origin were included in the analysis. The patient samples were collected from several sources and included patients with histories of venous thrombosis, arterial occlusions, cerebrovascular occlusions, multiple miscarriages and thrombocytopenia. All patients included in the study had IgG antiphospholipid antibody level (GPL) levels>20 by internal assay.
Total IgG fraction was isolated from plasma using Immunopure Plus protein G agarose beads and Immunopure IgG binding and elution buffers according to the manufacturers recommendation (Pierce).
(§3) Surface Plasmon Resonance. All experiments were performed using a BIAcore™ 2000 instrument at 25° C. with a flow rate of 10 μL/minute. Chip equilibration and binding studies were performed with degassed HBS-EP buffer, which consists of 0.01 M HEPES pH 7.4, 0.15 M NaCl, 3 mM EDTA and 0.005% (v/v) surfactant P20. Covalent coupling of protein ligands through their free amino groups to the CM5 chip was accomplished by flowing 40 μL of 0.05 M NHS/0.2M EDC over the chip to activate the chip, followed by exposure to the appropriate protein ligand. Recombinant β2GPI(His)6, domain-deletion mutants of β2GPI and haptoglobin were immobilized by flowing 50 μL of a 25 μg/mL solution in 10 mM acetate, (pH 4.8) over the NHS-activated CM5 chip. The excess reactive groups on the chip surface are then quenched with 40 μL of 1 M ethanoloamine, (pH 8.5). Human plasma samples (130 μL) were diluted 1:1 with HBS-EP, flowed over the β2GPI chip, and response values were collected for 780 seconds. The chips were regenerated between sample exposures with 80 μL of 0.1 M glycine-HCl (pH 2.1), 0.1 M NaCl. Since the approach to binding equilibrium was incomplete during the measurement period, the equilibrium binding value (Req) was determined by fitting the association curves to the following equation using the manufacturers software (BiaEvaluation version 2.2, Uppsala, Sweden) Rt=Req(I−e^−ks(t−t0))+R0 where Rt is the measured BIAcore response at time t, Req is the equilibrium plateau response, t is time, t0 is initial time, k, is an apparent association constant (ks=kaC+kdis, where ka is the association constant, C is the analyte concentration and kdis is the dissociation constant), and R0 is a response offset. In some experiments total IgG fractions from human plasma samples were obtained from binding to and acid elution from protein G. The plasma remaining after binding to protein G was remixed with fresh protein G beads and isolated as IgG-stripped plasma. Neutralized IgG preparations and IgG-stripped plasma diluted 1:1 with buffer were flowed over the β2GPI chip as described above. Results and Discussion

Normal human plasma = test: Surface plasmon resonance (BIAcore): control plasma/serum over immobilized β2GPI proteins; assay type: binding; conditions: serum of 55 controls
Text: as §1, §2
as §3, with “Neutralized IgG preparations and IgG-stripped plasma diluted 1:1 with buffer were flowed over the β2GPI chip as described above. Results and Discussion” left out

B1: -2345: recombinant β2GPI deletion mutant with domains 2-5 (protein)
chain: GRTPRVCPFAGILENGAVRYTTFEYPNTISFSCNTGFYLNGADSAKCTEEGKWSPELPVCAPIICPPPSIPTFATLRVYKPSAGNNSLYRDTAVFECLPQHAMFGNDTITCTTHGNWTKLPECREVKCPFPSRPDNGFVNYPAKPTLYYKDKATFGCHDGYSLDGPEEIECTKLGNWSAMPSCKASCKLPVKKATVVYQGERVKIQEKFKNGMLHGDKVSFFCKNKEKKCSYTEDAQCIDGTIEVPKCFKEHSSLAFWKTDASDVKPCGHHHHHH
- Req (APS patient plasma; 43/106 APS patients with negligible interaction): < 9
- BIAcore Req (APS patient plasma; non-selective patient 6117, IgG-stripped Plasma (1:2)): 0
- BIAcore Req (APS patient plasma; non-selective patient 6117, Total IgG (1:4)): 79
- BIAcore Req (APS patient plasma; non-selective patient 6117, Whole Plasma (1:2)): 386
- BIAcore Req (APS patient plasma; non-selective patient 6194, IgG-stripped Plasma (1:2)): 0
- BIAcore Req (APS patient plasma; non-selective patient 6194, Total IgG (1:4)): 688
- BIAcore Req (APS patient plasma; non-selective patient 6194, Whole Plasma (1:2)): 3197
- BIAcore Req (APS patient plasma; non-selective patient 6611, IgG-stripped Plasma (1:2)): 0
- BIAcore Req (APS patient plasma; non-selective patient 6611, Total IgG (1:4)): 177
- BIAcore Req (APS patient plasma; non-selective patient 6611, Whole Plasma (1:2)): 1002
- BIAcore Req (APS patient plasma; non-selective patient 6627, IgG-stripped Plasma (1:2)): 0
- BIAcore Req (APS patient plasma; non-selective patient 6627, Total IgG (1:4)): 182
- BIAcore Req (APS patient plasma; non-selective patient 6627, Whole Plasma (1:2)): 549
- BIAcore Req (APS patient plasma; non-selective patient 6649, IgG-stripped Plasma (1:2)): 0
- BIAcore Req (APS patient plasma; non-selective patient 6649, Total IgG (1:4)): 127
- BIAcore Req (APS patient plasma; non-selective patient 6649, Whole Plasma (1:2)): 553
- BIAcore Req (APS patient plasma; non-selective patient 7013, IgG-stripped Plasma (1:2)): 0
- BIAcore Req (APS patient plasma; non-selective patient 7013, Total IgG (1:4)): 75
- BIAcore Req (APS patient plasma; non-selective patient 7013, Whole Plasma (1:2)): 167
- BIAcore Req (APS patient plasma; patient 6207, IgG-stripped Plasma (1:2)): 0
- BIAcore Req (APS patient plasma; patient 6207, Total IgG (1:4)): 0
- BIAcore Req (APS patient plasma; patient 6207, Whole Plasma (1:2)): 19
- BIAcore Req (APS patient plasma; patient 6501, IgG-stripped Plasma (1:2)): 0
- BIAcore Req (APS patient plasma; patient 6501, Total IgG (1:4)): 0
- BIAcore Req (APS patient plasma; patient 6501, Whole Plasma (1:2)): 333
- BIAcore Req (APS patient plasma; patient 6515, IgG-stripped Plasma (1:2)): 0
- BIAcore Req (APS patient plasma; patient 6515, Total IgG (1:4)): 0
- BIAcore Req (APS patient plasma; patient 6515, Whole Plasma (1:2)): 259
- BIAcore Req (APS patient plasma; patient 6601, IgG-stripped Plasma (1:2)): 0
- BIAcore Req (APS patient plasma; patient 6601, Total IgG (1:4)): 0
- BIAcore Req (APS patient plasma; patient 6601, Whole Plasma (1:2)): 84
- BIAcore Req (APS patient plasma; patient 6626, IgG-stripped Plasma (1:2)): 0
- BIAcore Req (APS patient plasma; patient 6626, Total IgG (1:4)): 0
- BIAcore Req (APS patient plasma; patient 6626, Whole Plasma (1:2)): 37
- BIAcore Req (APS patient plasma; patient 6642, IgG-stripped Plasma (1:2)): 0
- BIAcore Req (APS patient plasma; patient 6642, Total IgG (1:4)): 0
- BIAcore Req (APS patient plasma; patient 6642, Whole Plasma (1:2)): 8
- BIAcore Req (APS patient plasma; patient 6701, IgG-stripped Plasma (1:2)): 0
- BIAcore Req (APS patient plasma; patient 6701, Total IgG (1:4)): 0
- BIAcore Req (APS patient plasma; patient 6701, Whole Plasma (1:2)): 199
- BIAcore Req (APS patient plasma; patient 6703, IgG-stripped Plasma (1:2)): 0
- BIAcore Req (APS patient plasma; patient 6703, Total IgG (1:4)): 0
- BIAcore Req (APS patient plasma; patient 6703, Whole Plasma (1:2)): 65
- BIAcore Req (APS patient plasma; patient 7015, IgG-stripped Plasma (1:2)): 0
- BIAcore Req (APS patient plasma; patient 7015, Total IgG (1:4)): 0
- BIAcore Req (APS patient plasma; patient 7015, Whole Plasma (1:2)): 158
- BIAcore Req (APS patient plasma; patient 7201, IgG-stripped Plasma (1:2)): 0
- BIAcore Req (APS patient plasma; patient 7201, Total IgG (1:4)): 0
- BIAcore Req (APS patient plasma; patient 7201, Whole Plasma (1:2)): 0
- Median Req (APS patient plasma; serum of 106 APS patients (GPL ≧ 20)): 24
- Req (mean ± sem) (APS patient plasma; serum of 106 APS patients (GPL ≧ 20), diluted 1:1): 158 ± 36
- Median Req (Normal human plasma): 103
- Req (mean ± sem) (Normal human plasma; diluted 1:1): 160 ± 26

Reference: patent US6858210B1, “Therapeutic and diagnostic domain 1 β2GPI polypeptides and methods of using same” (La Jolla Pharmaceutical Co., priority 1998, dated 2005)
